Source: paper doi:10.1101/2025.11.27.690911

Target: thrombin (UniProt P00734;P00734 328-363;364-622)
Assay: SPR

B1: SuperCan (structured_DNA)
DNA: GAAGAATGAACAGAGTAGGTCAAAGTCAGTGGGGAGTACACCACTGACGACGAGTTGAATGAACGTAGGAAGTAAGTATACGTTCATTCTTAGCTTCCAAAGCAGAGTGCGAGGCTTTGGAGCGTAACTTGCGTTATCGTCGCAAGAAAGCAAACGGTGATGAGACAATC
  binding result: binds
